# B1: CPEB3 Ribozyme (parent)
# chain: UAACAGGGGGCCACAGCAGAAGCGUUCACGUCGCAGCCCCUGUCAGAUUCUGGUGAAUCUGCGAAUUCUGCUGUAUAUCUC
# Variants of: B1
# Assay: self-cleavage, relative activity (ratio to wild type); higher = more cleavage; in vitro, sequencing
# Outline: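 Relative activity was defined as the cleaved/total read fraction for a variant divided by the same fraction for the unmutated ribozyme. CPEB3 self-cleaving ribozyme libraries were made by rounds of error-prone PCR, barcoded, and transcribed in vitro with T7 RNA polymerase for 5 hours at 37°C, and cleavage ran through transcription plus a 15 min DNase I step before EDTA. Illumina sequencing of template-switched reverse transcripts gave the reads, and DNA sequencing mapped the barcodes. Averages come from three batches, using variants with at least 5 reads.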
row,Variant,self-cleavage
1,C29G A35G,0.67
2,G30C A64U,0.2
3,U31A,0.56
4,G30A U60C,0.15
5,G30A U60A,0.08
6,G30A U60G,0.34
7,G30A A77G,0.4
8,G30A A77U,0.33
9,C29U A57U,0.2
10,C29U A57G,0.41
11,G30C G33U,0.19
12,C29U U31A,0.2
13,C29U U31C,0.31
14,G30A A47U,0.18
15,G30A A47G,0.41
16,G30A G63U,0.13
17,C29A U80C,0.54
18,C29G C59A,0.1
19,C29G C59G,0.2
20,U31A U41A,0.33
21,U31A U41C,0.51
22,U31A U41G,0.29
23,G30C A57G,0.25
24,C29U U67A,0.29

row,Variant,self-cleavage
1,C29U U67C,0.23
2,G30A G46A,0.15
3,G30U U51C,0.16
4,G30U U51A,0.11
5,G30A C39U,0.21
6,G30C G73A,0.11
7,C29U C62U,0.21
8,C29U C62G,0.24
9,G30A U74A,0.29
10,G30A U54C,0.43
11,G30A U67A,0.22
12,G30A U67C,0.18
13,G30U C62A,0.08
14,G30A U76A,0.13
15,G30A U76C,0.26
16,U31A G53A,0.53
17,U31A G53C,0.51
18,C29U U80A,0.48
19,C29U U80C,0.58
20,U31A A65G,0.36
21,U31A A65U,0.37
22,U31A C38U,0.53
23,G30U,0.25
24,G30C,0.28

row,Variant,self-cleavage
1,G30A,0.29
2,U31A C32G,0.12
3,U31A C32U,0.13
4,G30U A65G,0.25
5,U31A C62U,0.26
6,U31A C62A,0.28
7,C29G G33U,0.09
8,C29G A47G,0.21
9,C29U C44A,0.14
10,C29U A35U,0.22
11,C29U A35G,1.16
12,C29U A35C,0.25
13,C29G G30A,0.2
14,C29U A75U,0.72
15,C29U A75G,0.46
16,U31A G52A,0.69
17,U31A G52C,0.5
18,G30U U49C,0.42
19,G30U U49A,0.35
20,C29G U43C,0.3
21,C29G C34G,0.22
22,C29G C34U,0.08
23,C29A U76G,0.42
24,G30A C71U,0.18

row,Variant,self-cleavage
1,G30C A65C,0.11
2,G30C A65U,0.3
3,G30C A65G,0.11
4,C29U C68U,0.42
5,U31A C59G,0.19
6,U31A C59A,0.17
7,U31A C59U,0.37
8,G30C U51C,0.19
9,G30C U43C,0.25
10,C29G A56G,0.23
11,G30A U80C,0.41
12,G30A U80A,0.22
13,C29U U58A,0.43
14,C29U U58G,0.17
15,C29U U58C,0.46
16,G30U U60C,0.15
17,G30C U31C,0.26
18,C29U A77U,0.49
19,C29U A77C,0.5
20,C29U A77G,0.61
21,G30U U76A,0.5
22,G30U U76C,0.39
23,C29G U69A,0.13
24,C29G U69G,0.12

row,Variant,self-cleavage
1,C29G U69C,0.21
2,U31A U49C,0.22
3,U31A U49A,0.41
4,U31A C44U,0.23
5,G30C U60C,0.12
6,G30C U60A,0.13
7,U31A G63A,0.39
8,C29U U51C,0.46
9,C29U U51G,0.8
10,C29U U51A,0.53
11,G30C U78G,0.2
12,G30C U78C,0.38
13,G30U U31C,0.43
14,U31A A77G,0.32
15,U31A A77U,0.51
16,U31A G42C,0.53
17,U31A G42A,0.18
18,G30U C38U,0.26
19,C29U U43A,0.53
20,C29U U43C,0.31
21,C29U U43G,0.48
22,U31A G61A,0.37
23,U31A G61C,0.24
24,U31A A35C,0.27

row,Variant,self-cleavage
1,U31A A35U,0.3
2,U31A A35G,1.25
3,G30A C68U,0.12
4,G30C U76A,0.17
5,C29U,0.51
6,C29G,0.3
7,G30A G52A,0.21
8,U31A G55A,0.41
9,C29A U72C,0.31
10,C29A U72G,0.18
11,G30A A65G,0.38
12,C29U U60A,0.2
13,C29U U60C,0.24
14,C29U U60G,0.19
15,U31A U51A,0.59
16,C29U C59A,0.24
17,U31A C50U,0.41
18,G30A U69G,0.19
19,G30A U69A,0.23
20,G30A U69C,0.33
21,U31A C39U,0.34
22,U31A A56G,0.48
23,U31A A56U,0.39
24,C29G U49A,0.38

row,Variant,self-cleavage
1,G30U A45G,0.28
2,U31A C37U,0.16
3,C29U A47G,0.55
4,C29U A47U,0.24
5,C29G U67C,0.12
6,C29G A65G,0.27
7,C29U C40U,0.51
8,C29G A75G,0.21
9,C29G U72C,0.26
10,U31A C71U,0.29
11,U31A C71G,0.19
12,U31A C71A,0.17
13,G30U C79G,0.12
14,C29U G73C,1.15
15,C29U U54C,0.42
16,C29U U54A,0.54
17,U31A A64G,0.39
18,U31A A64C,0.14
19,U31A A64U,0.29
20,G30U C40U,0.2
21,G30A U72A,0.2
22,G30A U72C,0.33
23,C29U C32U,0.51
